According to patent US9175313B2, “Three-dimensional structure of isoprene synthase and its use thereof for generating variants” (Danisco US Inc., priority 2009, dated 2015):
Numbering of substitutions follows the chain as printed. In names and notes the source's numbering stands.

What was measured:
[1] = Differential scanning calorimetry, thermal midpoint (Tm); assay type: physicochemical
Protocol: Excessive heat capacity curves were measured using an ultrasensitive scanning high-throughput microcalorimeter, VP-Cap DSC (MicroCal, Inc., Northampton, Mass.). The standard procedure for Differential Scanning calorimetry (DSC) measurements and the theory of the technique is previously published (Freire, E. (1995) Differential Scanning calorimetry Methods. Mol. Biol. 41, 191-218). Approximately 500 μL of 0.5 mg/ml IspS (from strain MD09-167) or variant IspS-L494P (from strain DW399) and IspS-T536F (from strain DW363) (in the absence or presence of 5 mM sodium pyrophosphate) were scanned over a 30-100° C. temperature range. The same sample was then re-scanned to check the reversibility of the process. For IspS the thermal unfolding process was irreversible. The buffer used was 50 mM HEPES, 5 mM MgCl2, pH 7.4, with and without 5 mM sodium pyrophosphate. Sodium pyrophosphate was included for its ability to function as a substrate analog. A 200° C./hr scan rate was used to minimize any artifacts that may result from aggregation. The thermal midpoint (Tm) of the DSC curves was used as an indicator of the thermal stability. The thermal melting curves and the melting points for the wild type IspS and variants are shown in FIG. 56 (buffer only) and 57 (with 5 mM sodium pyrophosphate).

[2] = Small scale expression and yield of purified 6xHis-tagged IspS variants; conditions: BL21(λDE3)pLysS, 100 mL cultures
Protocol: N-terminally 6×His-tagged wild type IspS, IspS-L494P, and IspS-T536F were expressed and purified from strains MD09-167, DW399, and DW363, respectively. The growth procedure is suitable for histidine tagged enzymes expressed in BL21(λDE3)pLysS cells. A 3 ml of overnight culture was prepared for each 100 mL of planned growth. The appropriate antibiotics ([…] kanamycin, […] chloramphenicol) were added to 3 ml of LB medium in a 10 ml glass tube and was inoculated with 1 colony from a fresh plate of cells or directly from glycerol frozen cell stock. Cultures were grown at 30° C. overnight with shaking at ˜220 rpm. Day cultures were prepared in 100 mL of LB medium with appropriate antibiotics for each culture. Each 100 mL day culture was inoculated with 50 μl of overnight culture and grown at 37° C. with shaking at ˜220 rpm until the OD600 reached ˜0.4-0.6. Day cultures were then induced with 400 μM IPTG and allowed to continue growing at 30° C. with shaking at 220 rpm for ˜5-6 hours. […] Following Harvest, cells were used directly or stored at −80° C. until ready to process. […]
To buffer exchange the protein into a buffer suitable for protein assays and storage, a PD-10 column (GE Healthcare) was equilibrated with 25 mL PD-10 buffer (50 mM HEPES, 0.05 M NaCl, pH 7.4). […] The eluate was then analyzed by absorbance at 280 nm and SDS-PAGE gel and the samples were stored at −80° C.

[3] = buffer alone (50 mM HEPES, 5 mM MgCl2, pH 7.4)
[4] = in the presence of 5 mM sodium pyrophosphate

B1: L494P: P. alba IspS variant L494P; pDW101, strain DW399, SEQ ID NO: 69 (protein)
chain: MEARRSANYEPNSWDYDYLLSSDTDESIEVYKDKAKKLEAEVRREINNEKAEFLTLLELIDNVQRLGLGYRFESDIRGALDRFVSSGGFDAVTKTSLHGTALSFRLLRQHGFEVSQEAFSGFKDQNGNFLENLKEDIKAILSLYEASFLALEGENILDEAKVFAISHLKELSEEKIGKELAEQVNHALELPLHRRTQRLEAVWSIEAYRKKEDANQVLLELAILDYNMIQSVYQRDLRETSRWWRRVGLATKLHFARDRLIESFYWAVGVAFEPQYSDCRNSVAKMFSFVTIIDDIYDVYGTLDELELFTDAVERWDVNAINDLPDYMKLCFLALYNTINEIAYDNLKDKGENILPYLTKAWADLCNAFLQEAKWLYNKSTPTFDDYFGNAWKSSSGPLQLVFAYFAVVQNIKKEEIENLQKYHDTISRPSHIFRLCNDLASASAEIARGETANSVSCYMRTKGISEELATESVMNLIDETWKKMNKEKLGGSPFAKPFVETAINLARQSHCTYHNGDAHTSPDELTRKRVLSVITEPILPFERENLYFQGLEHHHHHH
[1]; buffer alone
  increase in the Tm vs wild type: 2.1 °C
[1]; [3]
  thermal melting point (Tm): 60.4 °C
[1]; [4]
  increase in the Tm vs wild type: 2.3 °C
  thermal melting point (Tm): 57.0 °C
[2]
  expression level (yield of purified protein) compared to wild type, in words: expressed at higher levels than the wild type protein

B2: T536F: P. alba IspS variant T536F; pDW87, strain DW363, SEQ ID NO: 95 (protein)
chain: B1 chain with P494L, T536F
[1]; buffer alone
  increase in the Tm vs wild type: 3.8 °C
[1]; [3]
  thermal melting point (Tm): 62.1 °C
[1]; [4]
  increase in the Tm vs wild type: 4.7 °C
  thermal melting point (Tm): 59.4 °C
[2]
  expression level (yield of purified protein) compared to wild type, in words: expressed at higher levels than the wild type protein
